According to article PMC2607015, “The Cell Adhesion Molecule “CAR” and Sialic Acid on Human Erythrocytes Influence Adenovirus In Vivo Biodistribution” (PLoS Pathogens, 2009):

What was measured:
[1] = target: CAR D1 (human) (UniProt P78310)
[2] = target: wild type CAV-2 fiber head (canine adenovirus serotype 2 (CAV-2)) (UniProt Q65914); assay: crystal structure; crystals of the CAV-2 fiber head - CAR D1 complex (space group I422) soaked with 10 to 50 mM sialyl-D-lactose; 2.9 Å
[3] = target: wild type CAV-2 fiber head (canine adenovirus serotype 2 (CAV-2)) (UniProt Q65914); assay: crystal structure; untagged CAV-2 fiber head crystallised with sialyl-D-lactose; 1.9 Å
[4] = target: T1, CAV-2 fiber head (CAV-2H^wt) (Canine adenovirus 2 strain Toronto A 26-61, UniProt Q65914); assay: X-ray crystal structure ([…] Å); type: binding; conditions: crystals grown with 8 mM and soaked in about 80 mM ligand, pH 7.4; Neu5Ac moiety bound at trimer periphery (Asn435, Ser419, Ser416, Gln417, Arg515)
T1 construct: gene L5; fiber head domain residues 358-542, N-terminal His-tag cleaved with TEV, pPROEX HTb; homotrimer

[5] = target: T2, HAd37 fiber head in complex with CAR D1 (Human adenovirus D37, UniProt Q64823); assay: X-ray crystal structure ([…] Å); type: binding; conditions: ligand soaked at 10 to 50 mM; ternary complex with CAR D1; Neu5Ac site of fiber head, not overlapping CAR site; HAd37 Neu5Ac site near the three-fold axis
T2 construct: gene L5; fiber head residues 177-365 with CAR domain D1; one monomer of each in asymmetric unit (space group I23, trimer by symmetry); with Coxsackievirus and adenovirus receptor (human), Ig-like domain D1

Sequence of CAR D1 (human) (P78310 20-140): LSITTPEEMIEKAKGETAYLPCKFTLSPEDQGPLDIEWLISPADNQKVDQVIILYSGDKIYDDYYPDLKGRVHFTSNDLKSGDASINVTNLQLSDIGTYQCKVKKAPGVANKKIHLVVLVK

Molecule	fold reduction of CAV-2 hemagglutination of human erythrocytes (CAR on the erythrocytes) after pre-incubating the erythrocytes with the fiber head [1] [fold]	stoichiometry N [2]	stoichiometry N [3]	X-ray crystal structure (1.9 Å) [4]	X-ray crystal structure (1.55 Å) [5]
CAV-2H^SA−1: CAV-2 fiber head mutant R515A (from UniProt Q65914 358-542) (domain or fragment)	16	–	–	–	–
CAV-2H^CAR−: CAV-2 fiber head with E384A mutation (CAR binding site) (from UniProt Q65914 358-542) (domain or fragment)	2	–	–	–	–
wild type CAV-2 fiber head (from UniProt Q65914 358-542) (domain or fragment)	> 256	3	3	–	–
CC(=O)N[C@H]1[C@H]([C@H](O)[C@H](O)CO)O[C@@](O[C@H]2[C@@H](O)[C@@H](CO)O[C@@H](O[C@H]3[C@H](O)[C@@H](O)C(O)O[C@@H]3CO)[C@@H]2O)(C(=O)O)C[C@@H]1O (stereo partly drawn) [sialyl-D-lactose, α2-3 N-acetylneuraminosyl-D-lactose]	–	–	–	clear density for six N-acetyl neuraminic acid (Neu5AC) moieties in the asymmetric unit	one CAR D1 molecule and one sialyl-D-lactose molecule in the asymmetric unit
